According to the RNAGym collection of RNA variant scans (doi:10.7554/elife.80360):

B1: Hammerhead Ribozyme (parent)
chain: ACCGGAUGUGCUUUCCGGUCUGAUGAGUCCGUGAGGACGAAACAG

Variants of: B1
Assay: self-cleavage, relative activity (ratio to wild type); higher = more cleavage; co-transcriptional

Variant | self-cleavage
ACCGGAUGUUCUUUCCGGUCUGAUGAGUCCGUGAGCACGAAACAG [G10U G36C] | 0.929
ACCGGAUGUUCUUUCCGGUCUGAUGAGUCCGUGAGAACGAAACAG [G10U G36A] | 0.65
ACCGGAUGUUCUUUCCGGUCUGAUGAGUCCGUAAGGACGAAACAG [G10U G33A] | 1.13
ACCGGAUGUUCUUUCCGGUCUGAUGAGUCCGUCAGGACGAAACAG [G10U G33C] | 1.1
ACCGGAUGUUCUUUCCGGUCUGAUGAGUCCGUUAGGACGAAACAG [G10U G33U] | 1.05
ACCGGAUGUUCUUUCCGGUCUUAUGAGUCCGUGAGGACGAAACAG [G10U G22U] | 0.351
ACCGGAUGUUCUUUCCGGUCUCAUGAGUCCGUGAGGACGAAACAG [G10U G22C] | 0.351
ACCGGAUGUUCUUUCCGGUCUAAUGAGUCCGUGAGGACGAAACAG [G10U G22A] | 0.354
ACCGGAUGUUCUUACCGGUCUGAUGAGUCCGUGAGGACGAAACAG [G10U U14A] | 0.822
ACCGGAUGUUCUUCCCGGUCUGAUGAGUCCGUGAGGACGAAACAG [G10U U14C] | 0.952
ACCGGAUGUUCUUGCCGGUCUGAUGAGUCCGUGAGGACGAAACAG [G10U U14G] | 0.709
ACCGGAUGUUCUUUCCGGUCUGAUGAGUCCGUGAGGUCGAAACAG [G10U A37U] | 0.768
ACCGGAUGUUCUUUCCGGUCUGAUGAGUCCGUGAGGGCGAAACAG [G10U A37G] | 0.877
ACCGGAUGUUCUUUCCGGUCUGAUGAGUCCGUGAGGCCGAAACAG [G10U A37C] | 0.934
ACCGGAUGUGAUUUCCGGUCUGAUGCGUCCGUGAGGACGAAACAG [C11A A26C] | 0.725
ACCGGAUGUGAUUUCCGGUCUGAUGGGUCCGUGAGGACGAAACAG [C11A A26G] | 0.28
ACCGGAUGUGAUUUCCGGUCUGAUGUGUCCGUGAGGACGAAACAG [C11A A26U] | 1.03
ACCGGAUGUUCUUUCCGGUCUGAUGAGUUCGUGAGGACGAAACAG [G10U C29U] | 0.94
ACCGGAUGUUCUUUCCGGUCUGAUGAGUGCGUGAGGACGAAACAG [G10U C29G] | 0.621

Variant | self-cleavage
ACCGGAUGUUCUUUCCGGUCUGAUGAGUACGUGAGGACGAAACAG [G10U C29A] | 0.658
ACCGGAUGUGAUUUCCGGUCUGAUGAGUCCGUGAGGACGAAACAG [C11A] | 1.12
ACCGGAUGUUCUUUCCGGUCUGAUGAGUCCGUGAGGAGGAAACAG [G10U C38G] | 0.848
ACCGGAUGUUCUUUCCGGUCUGAUGAGUCCGUGAGGAUGAAACAG [G10U C38U] | 1.09
ACCGGAUGUUCUUUCCGGUCUGAUGAGUCCGUGAGGAAGAAACAG [G10U C38A] | 0.645
ACCGGAUGUUCUUUCCGGUCUGAUGAGUCCGUGAGGACGAUACAG [G10U A41U] | 0.358
ACCGGAUGUUCUUUCCGGUCUGAUGAGUCCGUGAGGACGACACAG [G10U A41C] | 0.422
ACCGGAUGUUCUUUCCGGUCUGAUGAGUCCGUGAGGACGAGACAG [G10U A41G] | 0.372
ACCGGAUGUGAUUUCCGGUCUGAUGAGUCCGUGAGGACGGAACAG [C11A A40G] | 0.346
ACCGGAUGUGAUUUCCGGUCUGAUGAGUCCGUGAGGACGCAACAG [C11A A40C] | 0.587
ACCGGAUGUGAUUUCCGGUCUGAUGAGUCCGUGAGGACGUAACAG [C11A A40U] | 0.29
ACCGGAUGUUCUUUCCGGUCUGAUGAGUCCGUGAGGACGCAACAG [G10U A40C] | 0.548
ACCGGAUGUUCUUUCCGGUCUGAUGAGUCCGUGAGGACGGAACAG [G10U A40G] | 0.36
ACCGGAUGUUCUUUCCGGUCUGAUGAGUCCGUGAGGACGUAACAG [G10U A40U] | 0.338
ACCGGAUGUUCUCUCCGGUCUGAUGAGUCCGUGAGGACGAAACAG [G10U U13C] | 1.11
ACCGGAUGUUCUGUCCGGUCUGAUGAGUCCGUGAGGACGAAACAG [G10U U13G] | 0.674
ACCGGAUGUUCUAUCCGGUCUGAUGAGUCCGUGAGGACGAAACAG [G10U U13A] | 1.48
ACCGGAUGUUCUUUCAGGUCUGAUGAGUCCGUGAGGACGAAACAG [G10U C16A] | 1.06
ACCGGAUGUUCUUUCUGGUCUGAUGAGUCCGUGAGGACGAAACAG [G10U C16U] | 1.17

Variant | self-cleavage
ACCGGAUGUUCUUUCGGGUCUGAUGAGUCCGUGAGGACGAAACAG [G10U C16G] | 1.01
ACCGGAUGUUCUUUCCGGUCUGAUGAGUCCGUGAGGACGAAACAA [G10U G45A] | 0.694
ACCGGAUGUUCUUUCCGGUCUGAUGAGUCCGUGAGGACGAAACAU [G10U G45U] | 0.926
ACCGGAUGUUCUUUCCGGUCUGAUGAGUCCGUGAGGACGAAACAC [G10U G45C] | 0.828
ACCGGAUGUUCUUUCCGGUCUGAUGAGUCCGCGAGGACGAAACAG [G10U U32C] | 0.694
ACCGGAUGUUCUUUCCGGUCUGAUGAGUCCGGGAGGACGAAACAG [G10U U32G] | 0.758
ACCGGAUGUUCUUUCCGGUCUGAUGAGUCCGAGAGGACGAAACAG [G10U U32A] | 0.896
ACCGGAUGUUCUUUCCGGUCUGAUGAGUCUGUGAGGACGAAACAG [G10U C30U] | 1.07
ACCGGAUGUUCUUUCCGGUCUGAUGAGUCGGUGAGGACGAAACAG [G10U C30G] | 1
ACCGGAUGUUCUUUCCGGUCUGAUGAGUCAGUGAGGACGAAACAG [G10U C30A] | 0.844
ACCGGAUGUGAUUUCCGGUCUGAUGAGUCCGUGAGGUCGAAACAG [C11A A37U] | 0.633
ACCGGAUGUGAUUUCCGGUCUGAUGAGUCCGUGAGGGCGAAACAG [C11A A37G] | 1.28
ACCGGAUGUGAUUUCCGGUCUGAUGAGUCCGUGAGGCCGAAACAG [C11A A37C] | 1.12
ACCGGAUGUUCUUUCCGGGCUGAUGAGUCCGUGAGGACGAAACAG [G10U U19G] | 0.435
ACCGGAUGUUCUUUCCGGCCUGAUGAGUCCGUGAGGACGAAACAG [G10U U19C] | 0.665
ACCGGAUGUUCUUUCCGGACUGAUGAGUCCGUGAGGACGAAACAG [G10U U19A] | 0.347
ACCGGAUGUUCUUUCCGGUCUGACGAGUCCGUGAGGACGAAACAG [G10U U24C] | 1.13
ACCGGAUGUUCUUUCCGGUCUGAAGAGUCCGUGAGGACGAAACAG [G10U U24A] | 1.01
ACCGGAUGUUCUUUCCGGUCUGAGGAGUCCGUGAGGACGAAACAG [G10U U24G] | 1.16
